Reference: PMC10987521, “An all-in-one tetrazine reagent for cysteine-selective labeling and bioorthogonal activable prodrug construction” (Nature Communications, 2024)
“Also recorded” adds a separate entry of the source. Where two headings read alike, the source gives them in different places.

Legend:
[1] = assay type: physicochemical; conditions: PBS pH 7.4, 10% DMSO, 37 °C; for intact (%) under 10 mM GSH at 2 μM: 520 nm HPLC–MS; for intact (%) under 10 mM GSH: 520 nm HPLC–MS (PyTz UV–Vis)
Protocol: All tetrazine compounds were diluted to a concentration of 50 μM or 2 μM using PBS (10% DMSO, pH 7.4). A stock solution of GSH (400 mM in PBS) was then added to achieve a final concentration of 10 mM. The mixture was homogenized and incubated at 37 °C for 12 h. The stability of the compounds (including all peptide conjugates and PmTz) was assessed by measuring the decrease in peak area at 520 nm (with the initial peak area at 0 min defined as 100%). This measurement was monitored by HPLC–MS. Similarly, the stability of PyTz was determined by monitoring the decrease in peak intensity at 520 nm using UV–Vis. Statistical analysis was performed on data from three replicates to calculate the mean and standard deviation. […]
Response 1: We appreciate your comment. We conducted stability tests on RGD-Dox and RGD-SN-38 in 10 mM GSH at a concentration of 2 μM, which is below the critical micelle concentrations. After incubating at 37 °C for 12 hours, we observed that 95% of RGD-Dox and 85% of RGD-SN-38 remained intact. This stability is slightly less than […]
the observed stability is intrinsic to the peptide-drug conjugates, with a slight enhancement due to micelle […]
concentrations, after 12 hours of incubation at 37 °C (Figure S46). […]
intrinsic to the PDCs, with a slight enhancement by micelle formation.
Details of these experiments have been included in the Supplementary Information (Page S42), as outlined below:
RGD-Dox and RGD-SN-38 were diluted to a concentration of 2 μM using PBS (10% DMSO, pH 7.4). A stock solution of GSH (400 mM in PBS) was then added to achieve a final concentration of 10 mM. The mixture was homogenized and incubated at 37 °C for 12 hours. Stability was assessed by measuring the decrease in peak area at 520 nm (with the initial peak area at 0 min defined as 100%). This measurement was monitored by HPLC–MS. Statistical analysis was performed on data from three replicates to calculate the mean and standard deviation.

Stability in FBS (serum) = assay type: in vitro ADME; conditions: for remaining at 1 h, 50 μM / remaining at 2 h, 50 μM / remaining at 3 h, 50 μM / RGD-Dox (%): stability in the FBS; for remaining at 1 h, 50 μM / remaining at 2 h, 50 μM / remaining at 3 h, 50 μM: read-out: RGD-Dox (%)
Protocol: The results are shown as the mean ± SD. Source data are provided as a Source Data file. […]
Supplementary Fig. 48. Stability of RGD-Dox in the 50% FBS. RGD-Dox was diluted to a concentration of 50 μM
using 50% FBS/PBS (10% DMSO). The mixture was homogenized and incubated at 37 °C. The stability of RGD-Dox
was assessed by measuring the decrease in peak area at 520 nm (with the initial peak area at 0 min defined as 100%).
This measurement was monitored by HPLC–MS. Independent measurements were taken three times. The results are
shown as the mean ± SD. Source data are provided as a Source Data file. […]
Source data are provided as a Source Data file.

B16F10 melanoma tumor = assay: In vivo anticancer efficacy, subcutaneous B16F10 melanoma tumor model; parameters: species or system BALB/c nude mice; conditions: four i.v. courses, 3.67 μmol·kg^−1 (TCO-P4 36.7 μmol·kg^−1), n = 5
Protocol: Tumor-bearing mice were established by subcutaneously injecting a suspension of 5 × 10^5 B16F10 cells per mouse into the front flank of each nude mouse. When tumor volume reached 50−70 mm^3, the animals were randomly divided into five groups (n = 5). The mice were administered different compounds suspended in PBS via the tail vein every 3 days for a total of four times.
The mice underwent four treatment courses on day 0, day 3, day 6, and day 9. Tumor size and body weight were measured every day. Tumor volume was calculated via the following formula: V = 1/2 × (minor axis) × (major axis)[2].
After 12 days, the mice were sacrificed and dissected to obtain tumor tissues and main organs, including heart, liver, spleen, lung, and kidney. Subsequently, all tissues were fixed in a 4% paraformaldehyde solution, routinely paraffin-embedded and sectioned, and then stained with hematoxylin and eosin, as well as using TdT-mediated dUTP nick-end labeling (TUNEL) for subsequent pathological analysis. TUNEL-positive cells appeared fluorescent green, representing the apoptosis of tumor cells (nuclei were fluorescent blue, stained with DAPI).
13. In vivo anticancer efficacy […]
13.2 Calculation of the tumor growth inhibition values (TGI)
Tumor growth inhibition values (TGI) were calculated using the following formula: TGI (%) = (1 − RTVtreatment/
RTVcontrol)*100. RTV refers to relative tumor volume, representing the ratio of the volume at the end of treatment to the
volume at the beginning of treatment. […]

## COc1cccc2c1C(=O)c1c(O)c3c(c(O)c1C2=O)C[C@@](O)(C(=O)CO)C[C@@H]3O[C@H]1C[C@H](NC(=O)OCc2nnc(CCSC[C@@H]3NC(=O)[C@@H](Cc4ccc(O)cc4)NC(=O)[C@H](CC(=O)O)NC(=O)CNC(=O)[C@H](CCCNC(=N)N)NC3=O)nn2)[C@H](O)[C@H](C)O1 [RGD-Dox]
[1]; 1 h, Data 1, 2 μM (below CMC)
  intact (%) under 10 mM GSH at 2 μM: 98%
[1]; 1 h, Data 1, 50 μM
  intact (%) under 10 mM GSH: 98.414%
[1]; 1 h, Data 2, 2 μM (below CMC)
  intact (%) under 10 mM GSH at 2 μM: 96.5%
[1]; 1 h, Data 2, 50 μM
  intact (%) under 10 mM GSH: 98.1%
[1]; 1 h, Data 3, 2 μM (below CMC)
  intact (%) under 10 mM GSH at 2 μM: 98%
[1]; 1 h, Data 3, 50 μM
  intact (%) under 10 mM GSH: 97%
[1]; 3 h, Data 1, 2 μM (below CMC)
  intact (%) under 10 mM GSH at 2 μM: 93.4%
[1]; 3 h, Data 1, 50 μM
  intact (%) under 10 mM GSH: 95.9241%
[1]; 3 h, Data 2, 2 μM (below CMC)
  intact (%) under 10 mM GSH at 2 μM: 94.4%
[1]; 3 h, Data 2, 50 μM
  intact (%) under 10 mM GSH: 96.1928%
[1]; 3 h, Data 3, 2 μM (below CMC)
  intact (%) under 10 mM GSH at 2 μM: 94.5%
[1]; 3 h, Data 3, 50 μM
  intact (%) under 10 mM GSH: 97.3114%
[1]; 5 h, Data 1, 2 μM (below CMC)
  intact (%) under 10 mM GSH at 2 μM: 94.7%
[1]; 5 h, Data 2, 2 μM (below CMC)
  intact (%) under 10 mM GSH at 2 μM: 95%
[1]; 5 h, Data 3, 2 μM (below CMC)
  intact (%) under 10 mM GSH at 2 μM: 94.9%
[1]; 8 h, Data 1, 2 μM (below CMC)
  intact (%) under 10 mM GSH at 2 μM: 95%
[1]; 8 h, Data 1, 50 μM
  intact (%) under 10 mM GSH: 93.681%
[1]; 8 h, Data 2, 2 μM (below CMC)
  intact (%) under 10 mM GSH at 2 μM: 95.7%
[1]; 8 h, Data 2, 50 μM
  intact (%) under 10 mM GSH: 93.4607%
[1]; 8 h, Data 3, 2 μM (below CMC)
  intact (%) under 10 mM GSH at 2 μM: 96%
[1]; 8 h, Data 3, 50 μM
  intact (%) under 10 mM GSH: 95.7%
[1]; 12 h, 2 μM (below CMC), HPLC–MS 520 nm, mean of n = 3
  remained intact with 10 mM GSH at 2 μM: 95%
[1]; 12 h, 50 μM, HPLC–MS peak area 520 nm, mean of n = 3
  remained intact with 10 mM GSH: 96%
[1]; 12 h, Data 1, 2 μM (below CMC)
  intact (%) under 10 mM GSH at 2 μM: 96%
[1]; 12 h, Data 1, 50 μM
  intact (%) under 10 mM GSH: 94.9%
[1]; 12 h, Data 2, 2 μM (below CMC)
  intact (%) under 10 mM GSH at 2 μM: 95.4%
[1]; 12 h, Data 2, 50 μM
  intact (%) under 10 mM GSH: 97.6967%
[1]; 12 h, Data 3, 2 μM (below CMC)
  intact (%) under 10 mM GSH at 2 μM: 97%
[1]; 12 h, Data 3, 50 μM
  intact (%) under 10 mM GSH: 96.3405%
Stability in FBS (serum); bovine, serum, 5 h, 37 °C, 50 μM in 50% FBS/PBS (10% DMSO), HPLC–MS peak area 520 nm, n = 3, read-out: intact in serum
  remaining at 5 h, 50 μM: 80%
Stability in FBS (serum); bovine, serum, Data 1
  remaining at 1 h, 50 μM: 97%
  remaining at 2 h, 50 μM: 88%
  remaining at 3 h, 50 μM: 86%
Stability in FBS (serum); bovine, serum, Data 3
  remaining at 1 h, 50 μM: 93%
  remaining at 2 h, 50 μM: 89%
  remaining at 3 h, 50 μM: 84%
Stability in FBS (serum); bovine, serum, Data 2
  remaining at 3 h, 50 μM: 82%
Stability in FBS (serum); 0 h, Data 2
  RGD-Dox (%): 100%
Stability in FBS (serum); 0 h, Data 3
  RGD-Dox (%): 100%
Stability in FBS (serum); 5 h, Data 1
  RGD-Dox (%): 80%
Stability in FBS (serum); 5 h, Data 2
  RGD-Dox (%): 77%
Stability in FBS (serum); 5 h, Data 3
  RGD-Dox (%): 81%
B16F10 melanoma tumor
  tumor growth / inhibition in words: did not exhibit significant tumor inhibition; also recorded: rapid tumor growth
